This is an account of results in patent US20260098096A1 (MONASH UNIVERSITY, published 2026).

One assay deals with T1, Human CCR8 (human, UniProt P51685 1-355).
T1 construct: Expressed on transfected CHO-Flpn or L1.2 cells; also called hCCR8; C-C chemokine receptor type 8
As to the kind of experiment: flow cytometry on hCCR8-L1.2 transfected cells.

For a further assay, the target named is T2, human CCR3 (human, UniProt P51677 1-355).
T2 construct: whole, on cells
T2 sequence (looked up): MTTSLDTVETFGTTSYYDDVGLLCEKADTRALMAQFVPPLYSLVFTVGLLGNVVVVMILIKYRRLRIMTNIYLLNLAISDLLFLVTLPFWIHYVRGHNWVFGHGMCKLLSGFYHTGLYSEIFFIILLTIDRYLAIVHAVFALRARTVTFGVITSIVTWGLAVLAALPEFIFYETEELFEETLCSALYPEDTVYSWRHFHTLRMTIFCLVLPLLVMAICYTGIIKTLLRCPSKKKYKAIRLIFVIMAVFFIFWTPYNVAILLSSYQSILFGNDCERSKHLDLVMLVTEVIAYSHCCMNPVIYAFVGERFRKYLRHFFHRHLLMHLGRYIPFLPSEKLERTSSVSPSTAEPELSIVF
In words: flow cytometry on transfected L1.2 cells. A general note: In flow cytometry, cells or beads pass a laser one at a time.

Another assay has as its target T3, human CCR6 (human, UniProt P51684 1-374).
T3 construct: whole, on cells
T3 sequence (looked up): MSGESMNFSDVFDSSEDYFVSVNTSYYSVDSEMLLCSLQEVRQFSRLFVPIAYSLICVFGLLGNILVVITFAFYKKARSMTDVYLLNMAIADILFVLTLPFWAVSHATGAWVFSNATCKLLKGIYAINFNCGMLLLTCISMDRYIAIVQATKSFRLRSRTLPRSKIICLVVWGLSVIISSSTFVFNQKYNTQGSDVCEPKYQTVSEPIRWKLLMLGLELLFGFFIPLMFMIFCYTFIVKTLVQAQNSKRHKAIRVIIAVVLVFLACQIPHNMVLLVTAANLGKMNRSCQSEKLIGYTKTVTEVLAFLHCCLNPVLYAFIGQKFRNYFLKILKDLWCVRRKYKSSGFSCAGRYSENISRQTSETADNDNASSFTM
In words: flow cytometry on transfected L1.2 cells.

The next assay deals with T4, human CCR7 (human, UniProt P32248 25-378).
T4 construct: whole, on cells
T4 sequence (looked up): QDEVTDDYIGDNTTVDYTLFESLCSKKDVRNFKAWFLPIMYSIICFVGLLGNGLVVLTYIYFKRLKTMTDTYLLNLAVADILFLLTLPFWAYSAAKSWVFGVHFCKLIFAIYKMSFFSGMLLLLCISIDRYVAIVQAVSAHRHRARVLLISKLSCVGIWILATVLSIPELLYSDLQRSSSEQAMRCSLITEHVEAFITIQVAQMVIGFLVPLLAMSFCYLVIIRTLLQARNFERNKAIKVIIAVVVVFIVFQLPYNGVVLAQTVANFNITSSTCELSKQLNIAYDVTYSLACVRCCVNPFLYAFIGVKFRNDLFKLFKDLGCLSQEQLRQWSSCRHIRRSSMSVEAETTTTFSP
In words: flow cytometry on transfected L1.2 cells.

A further assay deals with T5, human CCR10 (human, UniProt P46092 1-362).
T5 construct: whole, on cells
T5 sequence (looked up): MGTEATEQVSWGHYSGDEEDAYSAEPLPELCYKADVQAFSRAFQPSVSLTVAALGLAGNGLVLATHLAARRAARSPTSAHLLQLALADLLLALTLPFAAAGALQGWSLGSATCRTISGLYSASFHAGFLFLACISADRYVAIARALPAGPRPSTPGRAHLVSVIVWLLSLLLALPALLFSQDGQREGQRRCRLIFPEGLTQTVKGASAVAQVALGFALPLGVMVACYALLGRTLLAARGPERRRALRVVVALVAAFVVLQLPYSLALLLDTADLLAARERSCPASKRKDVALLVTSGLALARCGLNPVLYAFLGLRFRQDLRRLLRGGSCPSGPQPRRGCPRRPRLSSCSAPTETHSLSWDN
As to the kind of experiment: flow cytometry on transfected L1.2 cells.

The next assay deals with T6, hCCR8_172-173 YQ-AA (human, UniProt P51685 1-355).
T6 construct: also called Mut 172-173
As to the kind of experiment: epitope mapping on transfected cells.

A further assay deals with T7, hCCR8_174-175 VA-AG (human, UniProt P51685 1-355).
T7 construct: also called Mut 174-175
In words: epitope mapping on transfected cells.

The target in the next assay is T8, Mouse CCR8 (mouse, UniProt P56484 1-353).
T8 construct: Expressed on transfected CHO-Flpn or L1.2 cells; also called mCCR8
T8 sequence: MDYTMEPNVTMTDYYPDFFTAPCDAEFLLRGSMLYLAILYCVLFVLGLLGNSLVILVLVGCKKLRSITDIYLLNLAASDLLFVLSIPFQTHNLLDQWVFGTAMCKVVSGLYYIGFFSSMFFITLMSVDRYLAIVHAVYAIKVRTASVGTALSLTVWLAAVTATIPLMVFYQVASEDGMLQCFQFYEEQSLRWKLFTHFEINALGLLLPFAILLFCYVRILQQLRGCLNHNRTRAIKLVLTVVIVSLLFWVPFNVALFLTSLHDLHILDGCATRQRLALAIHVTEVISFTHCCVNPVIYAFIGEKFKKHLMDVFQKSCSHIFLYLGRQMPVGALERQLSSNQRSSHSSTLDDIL
As to the kind of experiment: flow cytometry on transfected CHO-Flpn cells.

The target of another assay is T9, Cynomolgus CCR8 (cynomolgus monkey, UniProt O97665 1-356 (rhesus entry)).
T9 construct: also called cyno CCR8; cynomolgus monkey CCR8
In words: flow cytometry on HEK293T cells transfected with cyno CCR8. From the text: FIG. 2. Reactivity of 2H8 antibody and other anti-hCCR8 antibodies towards Cyno CCR8. HEK293T cells were transfected with plasmid coding for cynomolgus monkey CCR8 and stained with various anti-hCCR8 antibodies (blue) or isotype control (red).

T1 sequence (P51685 whole entry): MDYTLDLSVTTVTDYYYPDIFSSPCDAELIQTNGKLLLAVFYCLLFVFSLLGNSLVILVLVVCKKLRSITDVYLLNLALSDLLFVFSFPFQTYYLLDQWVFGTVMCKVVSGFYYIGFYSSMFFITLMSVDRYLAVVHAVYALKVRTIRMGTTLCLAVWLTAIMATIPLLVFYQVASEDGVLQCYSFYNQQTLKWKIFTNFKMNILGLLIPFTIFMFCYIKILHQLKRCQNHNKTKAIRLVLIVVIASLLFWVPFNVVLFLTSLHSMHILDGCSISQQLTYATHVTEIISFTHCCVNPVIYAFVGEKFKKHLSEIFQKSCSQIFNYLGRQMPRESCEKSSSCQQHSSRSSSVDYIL
T6 sequence (P51685 whole entry Y172A/Q173A): as the sequence (P51685 whole entry) above, with Y172A, Q173A counted along it
T7 sequence (P51685 whole entry V174A/A175G): as the sequence (P51685 whole entry) above, with V174A, A175G counted along it
T9 sequence (O97665 other isoform, or with tags, fused parts or gaps): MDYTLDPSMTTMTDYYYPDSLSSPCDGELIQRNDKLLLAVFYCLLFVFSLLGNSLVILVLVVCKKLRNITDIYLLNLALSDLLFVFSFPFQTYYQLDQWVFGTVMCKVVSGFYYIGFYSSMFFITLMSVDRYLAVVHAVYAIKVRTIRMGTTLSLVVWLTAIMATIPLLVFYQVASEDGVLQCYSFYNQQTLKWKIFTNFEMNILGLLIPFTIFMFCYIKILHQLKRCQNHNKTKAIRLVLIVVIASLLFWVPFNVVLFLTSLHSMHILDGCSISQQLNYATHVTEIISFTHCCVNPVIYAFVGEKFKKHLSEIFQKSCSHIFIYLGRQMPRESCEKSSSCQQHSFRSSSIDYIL

B1: Humanised 2H8 (antibody, V domains shown)
VH: QVQLVQSGAEVKKPGASVKVSCKASGYTFTDYNMHWVRQAPGQGLEWIGYVNPNNGGTSYNQKFKGKATLTVDKSISTAYMELSRLRSDDTAVYYCARWVLRRNFAYWGQGTLVTVSS
VL: DIQMTQSPSSLSASVGDRVTITCKASQDVNTAVAWYQQKPGKAPKLLIYWASTRHTGVPSRFSGSGSGTDFTLTISSLQPEDFATYYCQQHYRNPYTFGQGTKLEIK
notes: also called Humanized 2H8-B4; h2H8
As to B1, in the assay with Human CCR8, the EC50 (usually the concentration giving half of the maximal effect) is 2.1 nM.

B2: Chimeric 2H8 (antibody, human IgG1, kappa, V domains shown)
VH: EVQLQQSGPELVKPGASVKMSCKASGYTFTDYNMHWVKQSHGKSLEWIGYVNPNNGGTSYNQKFKGKATLTVNKSSSTAYMELRSLTSEDSAVYYCARWVLRRNFAYWGQGTLVTVSA
VL: DIVMTQSHKFMSTSVGDRVSITCKASQDVNTAVAWYQQKPGQSPKLLIYWASTRHTGVPDRFTGSGSGTDYTLTISSVQAEDLALYYCQQHYRNPYTFGGGTKLEIKR
notes: also called Chimeric 2H8-B4; chimeric 2H8 B4 (parental)
B2 came in with an EC50 with Human CCR8 of 2.1 nM.

B3: 2H8 anti-m/hCCR8 antibody (mouse hybridoma clone, isotype IgG2b) (antibody, V domains shown)
VH: B2 VH
VL: DIVMTQSHKFMSTSVGDRVSITCKASQDVNTAVAWYQQKPGQSPKLLIYWASTRHTGVPDRFTGSGSGTDYTLTISSVQAEDLALYYCQQHYRNPYTFGGGTKLEIK
notes: Murine antibody from a mouse immunised with mouse CCR8 L1.2 cells; the mouse constant regions are not; also called 2H8-B4
Turning to B3, the binding result was “no binding” with human CCR3; “no binding” with human CCR6; “no binding” in the assay with human CCR7; “no binding” with human CCR10; “binds” in the assay with hCCR8_172-173 YQ-AA; “binds” with hCCR8_174-175 VA-AG. The binding result with Mouse CCR8 and with Cynomolgus CCR8 was “binds” each time.
